Molecular target: T1, TnsD C152S (Escherichia coli (transposon Tn7), UniProt P13991 1-508, C152S)
T1 sequence: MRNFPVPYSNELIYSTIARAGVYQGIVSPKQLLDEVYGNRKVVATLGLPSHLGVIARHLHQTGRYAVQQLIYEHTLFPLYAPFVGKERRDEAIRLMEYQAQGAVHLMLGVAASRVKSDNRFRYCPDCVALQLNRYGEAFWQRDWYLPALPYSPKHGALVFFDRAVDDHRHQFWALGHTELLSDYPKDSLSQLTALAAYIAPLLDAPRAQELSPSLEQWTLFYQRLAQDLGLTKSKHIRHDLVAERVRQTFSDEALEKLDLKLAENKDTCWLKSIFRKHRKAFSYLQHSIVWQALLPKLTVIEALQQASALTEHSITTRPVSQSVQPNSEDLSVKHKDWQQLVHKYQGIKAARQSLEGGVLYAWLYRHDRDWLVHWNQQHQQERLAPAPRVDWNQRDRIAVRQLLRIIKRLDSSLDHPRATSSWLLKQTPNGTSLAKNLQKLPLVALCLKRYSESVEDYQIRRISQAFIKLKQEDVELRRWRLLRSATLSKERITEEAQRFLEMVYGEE
Experiment: EMSA; Gel-shift buffer not given (as described in ref. 6); TnsD stored in 500 mM KCl, 50 mM Tris-HCl pH 8.0, 1 mM EDTA, 2 mM DTT, 25% glycerol
Details: protein: recombinant; tags: intein-chitin tag, cleaved with DTT

B1: attTn7 wt (+23 to +58) (dsDNA)
DNA 1: CCGCGTAACCTGGCAAAATCGGTTACGGTTGAGTAA
DNA 2: TTACTCAACCGTAACCGATTTTGCCAGGTTACGCGG
binding signal: 0.05 relative to wt

Source: publication PMC2918618, “Characterization of the TnsD-attTn7 complex that promotes site-specific insertion of Tn7” (Mobile DNA, 2010)
